Laboratory results as given in patent publication US20240150805A1, “Glycosylated Opioids” (River Stone Biotech ApS, priority 2021, published 2024).

B1: XP_023876189: subfamily 72 UGT, sequence homolog of Qs72S_1 (protein)
chain: MEQKPHIAILPSPGMGHLIPFVEFAKLLLLHHDFHITCIIPTIGSPSKAMREVLQALPTSIDHVFLPPVSLEELGGVKPGIQITLTMIRSLPPLREVLTSLVATTRLVALVVDLFGTDALDVAKELNVSPYIFYPTNAMVVSLVLHLPKLDETVSCEYRDLPEPVKLPGCVPIHGRDLLDPIQDRTTELYKLFLRGAKWLRLVEGIIVNTFMELDGNVIKALEDEEAKSGTIYTIGPIIQSSSTKHVEGSDGLRWLDNQPRGSVLFVCFGSGGTLSYDQMKELALGLELSKQKFLWVVRSPNNELAQAAYFSDQTLDNNPLSFLPVGFIERTKEQGLVVPSWAPQAQVLSHDSTGGFLSHCGWNSTLESIMQGIPLIAWPLFAEQRMNALLLTEDLKVALRPKANEKNLVDREEIAKVIKSLMVGEDGKKIHSRMKDLKIAAEKALSPNGPSTKALADLASHWTNQSNS
modifications: Quercus suber
B2: Qs72S_1: subfamily 72 UGT (glycosyltransferase) from Quercus suber (protein)
chain: MEQKPHIALLPSPGMGHLIPLVEFAKQFVLHHDFHITCIIPVLGSPSKAMKAVLQALPTTIDHVFLPPVILEEEEIKGLKFEVQTILTLTRSLPPLREVLKTTRFSAFVVDPFGIDALDIAKELNISPYIFFPSNAFALSLIFHLPKLDETVSCEYRDLPEPLKLPGCIPIHGRDLIEPVQDRTSELYKMFLRNAKRFRLAEGIIVNTFMELEGSAIKALLDEEAKNLPLYPIGPIQSGSSNLQVDKSVSDCLRWLDNQPHGSVLFVCFGSGGTLSYDQTNELALGLELSGQKFLWVVRTPNNESADAAYLSDQILDNNPLDFLPKGFVERTEGQGLAVPSWAPQAQVLSHGSTGGFLTHCGWNSTLESIMQGIPLIAWPLYAEQKMNAPLLAEDLKVALRPKTNKSGLIDQEEIAKVVKGLMIGEEGKKVYNRMKDIKMAAEKALSADGSSTKALSELASQWKNHPGF
modifications: Quercus suber
notes: subfamily 72 UGT (glycosyltransferase) from Quercus suber
B3: XP_030967178: subfamily 72 UGT, sequence homolog of Qs72S_1 (protein, listed as Quercus lobata)
chain: MEQKPHIALLPSPGMGHLIPLVELAKLLLLHHDFHITCIIPVLGSPSKAMKAVLQALPTSIDNVFLPPVILEEEEIKGLKLEVQAMLTLTRSLPPLRDVLKSTRFSAFVVDPFGIDALDIAKELNISPYIFFSSNAFALSLVLHLPKLDETVPCEYRDLPEPVKLPGCIPIHGRDLIEPVQDRTSELYKMFLTNAKRYRLAEGIIVNTFMELEGSAIKAMLEEEAKNLPLFPVGPIQSGSSNQVDKLESDCLSWLDNQPHGSVLFVCFGSGGTLSYEQTNELALGLELSGQKFIWVVRTPNNESADATYLSDQNLGDNPLAFLPKGFVERTKGQGLVVPLWAPQAQVLSHGSTGGFLTHCGWNSTLESIMQGIPLIVWPLFAEQKMNAALLAEDLKVALRPKTDKNGLIDREEIAKVVKGLMVGEEGKKVHNRMEDIKIAAEKALSADGSSTKALSKLATQWKNHPDF
B4: SrUGT71E1: subfamily 71 UGT from Stevia rebaudiana (protein, listed as Stevia rebaudiana)
chain: MSTSELVFIPSPGAGHLPPTVELAKLLLHRDQRLSVTIIVMNLWLGPKHNTEARPCVPSLRFVDIPCDESTMALISPNTFISAFVEHHKPRVRDIVRGIIESDSVRLAGFVLDMFCMPMSDVANEFGVPSYNYFTSGAATLGLMFHLQWKRDHEGYDATELKNSDTELSVPSYVNPVPAKVLPEVVLDKEGGSKMFLDLAERIRESKGIIVNSCQAIERHALEYLSSNNNGIPPVFPVGPILNLENKKDDAKTDEIMRWLNEQPESSVVFLCFGSMGSFNEKQVKEIAVAIERSGHRFLWSLRRPTPKEKIEFPKEYENLEEVLPEGFLKRTSSIGKVIGWAPQMAVLSHPSVGGFVSHCGWNSTLESMWCGVPMAAWPLYAEQTLNAFLLVVELGLAAEIRMDYRTDTKAGYDGGMEVTVEEIEDGIRKLMSDGEIRNKVKDVKEKSRAAVVEGGSSYASIGKFIEHVSNVTI
B5: PWA37695: subfamily 73 UGT (protein, listed as Artemisia annua)
chain: MVAPSTELHFVMFPLMAQGHIVPMVDIARILAEKGATVTIFATPLVANRFRPVISRAIEAKLKIQILELELQVAKVGLPEGCQSFEKLPSSDSSAKLFAAMDLLEQPAEDLVRKLSPPPDCIISDFLFPWTTDMARRFNIPRLVFHGPGCFWLVCMHAVFSSDKFKTIKLEEKFMLPGLPDQVEVTKLQITGTKEIKPEQMGFWVRATEAEKAAYGTVVHTFYELEPEYVKEYSKVKDTKVWCIGPVALSNKANLDIAERGNKAAINEHDCLKWLDEKEPGSVFYVCLGSITRLSTEQAIEIALGLESTNQPFLWFLRNKTQELEKWFSEVGFEERVKDRGLIVHGWAPQILILSHCAVGGFLTHCGWNSTLEGVSFGVPMVTWPHFADQFLNETFIVEILKIGVRIGVDIPELYGEEDKLEALVKKEDVKRAVECLMDKEDKEAKQRRKRARKLAEMAKRAMAEGGSSYVNVSSLIQDITEFRNTQRLNRLHV
B6: KAF3968554: subfamily 72 UGT, sequence homolog of Qs72S_1 (protein, listed as Castanea mollissima)
chain: MEQKPHIGILPSPGMGHLIPLVEFAKLLVHHHDFNITCIIPVLGSPSKAMKAVLHALPTTIDHVFLPPVILEEEEMKGPRFEVQTILTLTRSLPPLRDVLKSTRFSAFVVDPFGIDALDIAKELNISPYIFFPTNAFALSLIFHLPKLDETVSCEYRDLPEPLKLPGCIPIHGRDLAEPFQNRTSESYKMFLRIAKRFRLAEGIIVNTFMGLEGSAIKALLEEEAKNLPLYPVGPIQSGSSNQVEESDCLRWLGNQPHGSVLFVCFGSGGTLSYDQTNELALGLELSGQKFLWVVRTPNNESADAAYLSDQTLYNNPLAFLPKGFVERTEGQGLAVPSWAPQAQVLSHGSTGGFLTHCGWNSSLESIMQGIPLIAWPLYAEQKMNAVLLAEDLKVALRPKTNKNGLIDREEIAKVVKGLMDGEEGKKVRNRMKDIKIAAEKALNVDGSSTKTLSKLASKWKNHSSF
B7: XP_023905565: subfamily 72 UGT, sequence homolog of Qs72S_1 (protein)
chain: MEQKPHIALLPSPGMGHLVPLVELAKLLLLHHDFHITCIIPVLGSPSKAMKAVLQALPTSIDHVFLPPVILEEEEIKGLKLEVQAMLTLTRSLPPLRDVLKSTRFSAFVVDPFGIDALDIAKELNISPYIFFPSNAFALSLVLHLPKLDETVSCEYRDLPEPIKLPGCITIHGRDLLEPVQDRTSELYKMFLSNTKRYRLAEGIIVNTFMELEGSAIKALLEEEAKNLPLFPVGPIQSGSSNQVDKSESDCLRWLDNQPHGSVLFVCFGSGGTLSYDQTNELALGLELSGQKFIWVVRTPNNESADATYLSDQTLGNNPLAFLPKGFVERTKGQGLVVPFWAPQAQVLSHGSTGGFLTHCGWNSTLESIMQGIPLIVWPLFAEQKMNAALLAEDLKVALRPKTNKNGRIDREEITKVVKGLMVGEEGKKVRNRMKDIKIAAEKALSADGSSTKALSKLATQWKNHSDF
modifications: Quercus suber

Test: In vitro glucosylation of oripavine and nororipavine by purified UGTs
Assay type: biochemical
Conditions: 72UGTs, test setup of example 3, FIG. 8
Description: Glucosylation samples of a 20 μL total reaction volume for each UGT to be tested were prepared in 96-well microtiter plates as follows:
The microtiter plate was sealed with an adhesive seal, spun shortly and the glucosylation samples were incubated overnight at 30° C. After incubation, glucosylation reaction was terminated by adding 3 volumes (60 μL) of ice-cold 100% methanol the reaction volume and mixing well, followed by centrifugation of the plate at 3000 rpm for 5 min at 4° C. and analysis by HPLC.
The 72UGTs of Table 5 were tested in vitro to using the test setup of example 3 identify those having having specificity toward nororipavine.

Row | Molecule | specificity for nororipavine compared to oripavine | glucosylation activity
1 | B1 | particularly high specificity | –
2 | B2 | particularly high specificity | high activity
3 | B3 | particularly high specificity | –

Same assay, conditions: purified UGT, 500 μM substrate, overnight at 30° C., HPLC

Row | Molecule | preference for nororipavine glucosylation compared to oripavine glucosylation
4 | B1 | particularly strong preference for Nororipavine glucosylation
5 | B2 | particularly strong preference for Nororipavine glucosylation
6 | B4 | preference for glucosylation of nororipavine
7 | B5 | very strong preference for oripavine glucosylation
8 | B3 | particularly strong preference for Nororipavine glucosylation
9 | B6 | particularly strong preference for Nororipavine glucosylation
10 | B7 | particularly strong preference for Nororipavine glucosylation
